# T1: FcγRIIa H (FcγRIIa type H, His at position 131), extracellular domain with C-terminal His tag (human, UniProt P12318 34-217)
# T1 construct: extracellular domain; also called 2aH; FcgRIIa H; not shown: His tag at the C terminus
# T1 sequence (looked up): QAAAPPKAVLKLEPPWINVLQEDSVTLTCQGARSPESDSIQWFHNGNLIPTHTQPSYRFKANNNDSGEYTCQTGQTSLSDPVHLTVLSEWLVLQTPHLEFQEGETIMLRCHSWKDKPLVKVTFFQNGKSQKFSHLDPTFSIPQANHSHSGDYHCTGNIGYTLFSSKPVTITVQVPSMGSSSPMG
# T2: FcγRIIb, extracellular domain with C-terminal His tag (human, UniProt P31994 43-217)
# T2 construct: extracellular domain; also called 2b; FcgRIIb; not shown: His tag at the C terminus
# T2 sequence (looked up): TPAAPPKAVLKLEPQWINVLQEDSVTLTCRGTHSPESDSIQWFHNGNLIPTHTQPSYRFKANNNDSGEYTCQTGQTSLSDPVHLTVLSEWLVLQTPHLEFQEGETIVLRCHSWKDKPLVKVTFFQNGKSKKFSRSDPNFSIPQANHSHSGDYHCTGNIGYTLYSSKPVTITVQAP
# T3: FcγRIIb extracellular domain with C-terminal His tag (human, UniProt P31994 43-217)
# T3 construct: extracellular domain; also called FcgRIIb; 2b; not shown: His tag at the C terminus
# T3 sequence (looked up): T2 sequence (looked up)
# B1: GpH7-A5/GpH7-B3 variant V266_10E/GpL16-k0 (antibody, human IgG1, kappa)
# heavy 1: not shown
# heavy 2: not shown
# light: DIVMTQSPLSLPVTPGEPASISCQASESLVHSNRNTYLHWYLQKPGQSPQLLIYKVSNRFSGVPDRFSGSGSGTDFTLKISRVEAEDVGVYYCSQNTHVPPTFGQGTKVEIERTVAAPSVFIFPPSDEQLKSGTASVVCLLNNFYPREAKVQWKVDNALQSGNSQESVTEQDSKDSTYSLSSTLTLSKADYEKHKVYACEVTHQGLSSPVTKSFNRGEC
# notes: Heterodimerized IgG1 (He Ab); mutation only in the GpH7-B3 chain; also called He Ab V266E
# B2: GpH7-A5/GpH7-B3 variant V266_12R/GpL16-k0 (antibody, human IgG1, kappa)
# heavy 1: not shown
# heavy 2: not shown
# light: B1 light
# notes: Heterodimerized IgG1 (He Ab); mutation only in the GpH7-B3 chain; also called He Ab V266R
# B3: GpH7-A5/GpH7-B3 variant V266_13S/GpL16-k0 (antibody, human IgG1, kappa)
# heavy 1: not shown
# heavy 2: not shown
# light: B1 light
# notes: Heterodimerized IgG1 (He Ab); mutation only in the GpH7-B3 chain; also called He Ab V266S
# B4: GpH7-A5/GpH7-B3 variant V266_14T/GpL16-k0 (antibody, human IgG1, kappa)
# heavy 1: not shown
# heavy 2: not shown
# light: B1 light
# notes: Heterodimerized IgG1 (He Ab); mutation only in the GpH7-B3 chain; also called He Ab V266T
# B5: GpH7-A5/GpH7-B3 variant V266_15Y/GpL16-k0 (antibody, human IgG1, kappa)
# heavy 1: not shown
# heavy 2: not shown
# light: B1 light
# notes: Heterodimerized IgG1 (He Ab); mutation only in the GpH7-B3 chain; also called He Ab V266Y
# B6: GpH7-A5/GpH7-B3 variant D270_13S/GpL16-k0 (antibody, human IgG1, kappa)
# heavy 1: not shown
# heavy 2: not shown
# light: B1 light
# notes: He Ab: the mutation stands only in the GpH7-B3-derived H chain; also called He Ab D270S
# B7: GpH7-A5/GpH7-B3 variant D270_15Y/GpL16-k0 (antibody, human IgG1, kappa)
# heavy 1: not shown
# heavy 2: not shown
# light: B1 light
# notes: He Ab: the mutation stands only in the GpH7-B3-derived H chain; also called He Ab D270Y
# B8: GpH7-A5/GpH7-B3 variant D270_18N/GpL16-k0 (antibody, human IgG1, kappa)
# heavy 1: not shown
# heavy 2: not shown
# light: B1 light
# notes: He Ab: the mutation stands only in the GpH7-B3-derived H chain; also called He Ab D270N
# B9: GpH7-A5/GpH7-B3 variant D270_19Q/GpL16-k0 (antibody, human IgG1, kappa)
# heavy 1: not shown
# heavy 2: not shown
# light: B1 light
# notes: He Ab: the mutation stands only in the GpH7-B3-derived H chain; also called He Ab D270Q
# B10: GpH7-A5/GpH7-B3 variant E269_19Q/GpL16-k0 (antibody, human IgG1, kappa)
# heavy 1: not shown
# heavy 2: not shown
# light: B1 light
# notes: He Ab: the mutation stands only in the GpH7-B3-derived H chain; also called He Ab E269Q
# B11: GpH7-A5/GpH7-B3 variant P271_20W/GpL16-k0 (antibody, human IgG1, kappa)
# heavy 1: not shown
# heavy 2: not shown
# light: B1 light
# notes: He Ab: the mutation stands only in the GpH7-B3-derived H chain; also called He Ab P271W
# B12: GpH7-A5/GpH7-B3 variant Q295_01G/GpL16-k0 (antibody, human IgG1, kappa)
# heavy 1: not shown
# heavy 2: not shown
# light: B1 light
# notes: He Ab: the mutation stands only in the GpH7-B3-derived H chain; also called He Ab Q295G
# B13: GpH7-A5/GpH7-B3 variant Q295_02A/GpL16-k0 (antibody, human IgG1, kappa)
# heavy 1: not shown
# heavy 2: not shown
# light: B1 light
# notes: He Ab: the mutation stands only in the GpH7-B3-derived H chain; also called He Ab Q295A
# B14: GpH7-A5/GpH7-B3 variant Q295_09D/GpL16-k0 (antibody, human IgG1, kappa)
# heavy 1: not shown
# heavy 2: not shown
# light: B1 light
# notes: He Ab: the mutation stands only in the GpH7-B3-derived H chain; also called He Ab Q295D
# Target: T1, FcγRIIa H (FcγRIIa type H, His at …)
# Assay: ratio of He/Con_2aH (FcγRIIa H) to He/Con_2b (FcγRIIb), SPR relative binding
# Description: (§1) The heterodimerized antibodies He Abs in which one of the H chains was introduced with an alteration were assayed for their binding activities to each activating FcγR and inhibitory FcγR according to the method described in Example 4. […] The activating FcγRs in FIGS. 26, 27, 28, and 29 are FcγRIa, FcγRIIa (R), FcγRIIa (H), and FcγRIIIa, respectively.
# (§2) Analysis of interaction between objective antibody and the FcγR was carried out using Biacore T100 (GE Healthcare). HBS-EP+ (GE Healthcare) was used as the running buffer, and the measurement temperature was set to 25° C. Chips produced by immobilizing the antigen peptide by the amine coupling method to a Series S Sencor Chip CM5 (GE Healthcare), or alternatively, chips produced by allowing preliminarily biotinylated antigen peptides to interact with and immobilize onto a Series S Sensor Chip SA (certified) (GE Healthcare) were used. Antibodies of interest were captured onto an antigen peptide-immobilized chip, and allowed to interact to each FcγR diluted with running buffer. To regenerate and repeatedly use the chip, the antibodies captured on the chip were washed off by reacting 10 mM glycine-HCl, pH 1.5.
row,Binder,He_2aH/2b (IIaH/IIb ratio)
1,B1,0.66
2,B2,-1.05
3,B3,0.5
4,B4,0.53
5,B5,0.37

# Target: T4, FcγRIIIa extracellular domain with C-terminal His tag (human, UniProt P08637 17-208)
# T4 construct: extracellular domain; also called FcgRIIIa; 3a; not shown: His tag at the C terminus
# T4 sequence (P08637 17-208): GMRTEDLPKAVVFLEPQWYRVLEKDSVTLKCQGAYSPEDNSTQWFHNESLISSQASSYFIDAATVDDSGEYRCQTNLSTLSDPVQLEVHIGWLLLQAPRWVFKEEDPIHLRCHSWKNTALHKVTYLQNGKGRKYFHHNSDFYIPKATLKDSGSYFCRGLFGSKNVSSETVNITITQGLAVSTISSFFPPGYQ
# Assay: ratio of He/Con_3a to He/Con_2b (FcγRIIIa over FcγRIIb), SPR relative binding
# Description: as §1, §2
row,Binder,IIIa/IIb (He_3a/2b)
1,B6,1.28
2,B7,1.22
3,B8,1.4
4,B9,1.7
5,B10,1.47
6,B11,1.28
7,B12,1.59
8,B13,1.32
9,B14,1.34

# Target: T1, FcγRIIa H (FcγRIIa type H, His at …)
# Assay: SPR (Biacore), antibody captured on antigen-peptide chip, FcγR as analyte; GpH7-A5/GpH7-B3/GpL16-k0 = 100
# Description: as §1, §2
row,Binder,He/Con_2aH (relative binding activity)
1,B1,10.1 % of control
2,B2,1.1 % of control
3,B3,27 % of control
4,B4,43.3 % of control
5,B5,18.1 % of control

# Target: T2, FcγRIIb, extracellular domain with …
# Assay: as above
# Description: as §1, §2
row,Binder,He/Con_2b (relative binding activity)
1,B1,15.2 % of control
2,B2,-1.1 % of control
3,B3,54.4 % of control
4,B4,82.3 % of control
5,B5,49.4 % of control

# Target: T4, FcγRIIIa extracellular domain with …
# Assay: SPR (Biacore), antibody captured via antigen peptide, FcγR as analyte; binding relative to GpH7-A5/GpH7-B3/GpL16-k0 = 100
row,Binder,He/Con_3a
1,B6,56.7 relative (control = 100)
2,B7,54.5 relative (control = 100)
3,B8,56.5 relative (control = 100)
4,B9,81.9 relative (control = 100)
5,B10,65 relative (control = 100)
6,B11,74.1 relative (control = 100)
7,B12,73 relative (control = 100)
8,B13,106 relative (control = 100)
9,B14,81.5 relative (control = 100)

# Target: T3, FcγRIIb extracellular domain with …
# Assay: as above
row,Binder,He/Con_2b
1,B6,44.2 relative (control = 100)
2,B7,44.9 relative (control = 100)
3,B8,40.3 relative (control = 100)
4,B9,48 relative (control = 100)
5,B10,44.3 relative (control = 100)
6,B11,58.1 relative (control = 100)
7,B12,46 relative (control = 100)
8,B13,79.7 relative (control = 100)
9,B14,60.8 relative (control = 100)

# From patent US20180155451A1 (published 2018)
